For one test, the target named is <Her2/neu> Ha-Lw. Briefly: SPR; monovalent (affinity) set-up: antibody captured via anti-hFc on CM5 chip, huHer2 ECD as analyte 19-300 nM; Biacore T200, HBS-P+ pH 7.4, 25 °C; 1:1 Langmuir model. Background: Surface plasmon resonance follows binding to a sensor surface in real time, without labels.
The target of the next test is <Her2/neu> Hg-Lw. The test is described as above.
A further test has as its target <Her2/neu> Hg-Lg. The description is as above.
For a further test, the target named is <Her2/neu> Hb-Lw. The test is described as above.
In a further test the target is <EGFR> Ha-Lw. Briefly: SPR; monovalent (affinity) set-up: antibody captured via anti-hFc on CM5 chip, huEGFR ECD as analyte 19-300 nM; Biacore T200, HBS-P+ pH 7.4, 25 °C; 1:1 Langmuir model.
A further test concerns the target <EGFR> Hb-Lw. The description is as above.
A further test has as its target <EGFR> Hw-La. The test is described as above.

Chain of <Her2/neu> Hg-Lw (heavy, as listed by the source, chain 1 of 2): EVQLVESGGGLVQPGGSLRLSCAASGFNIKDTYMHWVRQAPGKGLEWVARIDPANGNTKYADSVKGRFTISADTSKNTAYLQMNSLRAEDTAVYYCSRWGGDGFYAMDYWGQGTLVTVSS
Chain of <Her2/neu> Hg-Lw (light, as listed by the source, chain 2 of 2): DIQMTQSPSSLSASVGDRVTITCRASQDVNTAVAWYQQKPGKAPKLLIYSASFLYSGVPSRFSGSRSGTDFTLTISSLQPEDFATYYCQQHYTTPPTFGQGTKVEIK
Chain of <Her2/neu> Hg-Lg (light, as listed by the source, chain 2 of 2): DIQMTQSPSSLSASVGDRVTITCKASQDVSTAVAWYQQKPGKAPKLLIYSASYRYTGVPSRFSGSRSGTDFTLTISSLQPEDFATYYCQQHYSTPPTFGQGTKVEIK
Chain of <Her2/neu> Hb-Lw (heavy, as listed by the source, chain 1 of 2): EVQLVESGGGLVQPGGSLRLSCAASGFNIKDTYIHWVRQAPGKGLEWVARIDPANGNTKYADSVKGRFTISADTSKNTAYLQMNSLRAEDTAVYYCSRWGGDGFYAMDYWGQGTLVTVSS
Chain of <Her2/neu> Ha-Lw (heavy, as listed by the source, chain 1 of 2): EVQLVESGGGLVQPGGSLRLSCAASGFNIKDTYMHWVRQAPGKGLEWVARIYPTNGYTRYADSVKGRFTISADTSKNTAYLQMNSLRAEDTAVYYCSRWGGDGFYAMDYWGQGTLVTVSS

The term Kd denotes the constant that tells how readily two partners part at equilibrium. Read a high Kd as a looser complex. Consider “huHer2 ECD (from UniProt P04626 23-652) (domain or fragment)”, for which the Kd with <Her2/neu> Ha-Lw turned out to be 2.1 nM; with <Her2/neu> Hg-Lw, 340 nM; with <Her2/neu> Hg-Lg it was 390 nM; in the test with <Her2/neu> Hb-Lw, 390 nM.
Consider “huEGFR ECD (from UniProt P00533 25-645) (domain or fragment)”, for which the Kd with <EGFR> Ha-Lw was 0.73 nM; in the test with <EGFR> Hb-Lw it was 0.66 nM; in the test with <EGFR> Hw-La it was 3.5 nM.

Source of the values: article PMC6784197.
